These results are taken from the supplement of paper PMC7877785.

This data set in a line: self-splicing fitness, log relative to wild type (ln ratio); higher = more splicing; Tetrahymena group I intron in knt gene, E. coli kanamycin selection, DiMSum; sequences stand for … in CUCUCU…GGAGGGAAAAGUUAUCAGGCAUGCACCUGGUAGCUAGUCUUUAAACCAAUAGAUUGCAUCGGUUUAAAAGGCAAGACCGUCAAAUUGCGGGAAAGGGGUCAACAGCCGUUCAGUACCAAGUCUCAGGGGAAACUUUGAGAUGGCCUUGCAAAGGGUAUGGUAAUAAGCUGACGGACAUGGUCCUAACCACGCAGCCAAGUCCUAAGUCAACAGAUCUUCUGUUGAUAUGGAUGCAGUUCACAGACUAAAUGUCGGUCGGGGAAGAUGUAUUCUUCUCAUAAGAUAUAGUCGGACCUCUCCUUAAUGGGAGCUAGCGGAUGAAGUGAUGCAACACUGGAGCCGCUGGGAACUAAUUUGUAUGCGAAAGUAUAUUGAUUAGUUUUGGAGUACUCGUGGUCG
A digest of the protocol: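 Fitness was computed with DiMSum as the error-weighted combination of replicate fold changes, kanamycin versus none, each normalised to wild type. The library randomised all eight intron nucleotides of the P1ex region, with the intron placed in the knt kanamycin-resistance gene on pET-22b(+) in E. coli BL21(DE3). Six replicate transformations were grown overnight at 37°C or 30°C on LB agar with or without 25 μg/mL kanamycin, plus 100 μg/mL carbenicillin, 50 μM IPTG and 0.2% rhamnose. Pooled colonies were amplicon-sequenced on an Illumina HiSeq 2500.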

± gives the uncertainty stated by the source.

Regarding AUGGAGCAAUAUUACGAAAA, the “self-splicing fitness (ln)” value (37 °C) was -0.761 ± 0.38.

As to UUCGAGCAAUAUUACGACGG, the “self-splicing fitness (ln)” value by setting is: (30 °C) -1.24 ± 0.11; (37 °C) -0.685 ± 0.1. For UUACAGCAAUAUUACGUUCU the same measures were -1.6 ± 0.13 and -1.01 ± 0.11. AUCUAGCAAUAUUACGAAAC: the “self-splicing fitness (ln)” value (37 °C) was -1.96 ± 0.49.

For CCUCAGCAAUAUUACGACCU, the “self-splicing fitness (ln)” value is, setting by setting: (30 °C) -2.59 ± 0.16; (37 °C) -2.59 ± 0.29. For GCUCAGCAAUAUUACGCGAU, the “self-splicing fitness (ln)” value is, setting by setting: (30 °C) -2.55 ± 0.15; (37 °C) -1.51 ± 0.14.

As for UUACAGCAAUAUUACGACCU, the “self-splicing fitness (ln)” value is -1.38 ± 0.18 (30 °C) and -1.25 ± 0.18 (37 °C). For CUUAAGCAAUAUUACGUUGG the same measures were -2.67 ± 0.15 and -2.4 ± 0.14. Take CGAAAGCAAUAUUACGAGUA: the “self-splicing fitness (ln)” value by setting is: (30 °C) -3.07 ± 0.19; (37 °C) -2.36 ± 0.18.

For the sequence UUCCAGCAAUAUUACGGAUG, the “self-splicing fitness (ln)” value is, setting by setting: (30 °C) -0.779 ± 0.058; (37 °C) 0.293 ± 0.076. Turning to AUACAGCAAUAUUACGAGCG, the “self-splicing fitness (ln)” value runs as follows: (30 °C) -1.63 ± 0.096; (37 °C) -0.55 ± 0.1. For the sequence CUAAAGCAAUAUUACGGCCG, the “self-splicing fitness (ln)” value was 0.821 ± 0.14 (30 °C) and 0.575 ± 0.21 (37 °C).

On to GCACAGCAAUAUUACGGCGG, for which the “self-splicing fitness (ln)” value (30 °C) is -3.29 ± 0.19 and the “self-splicing fitness (ln)” value (37 °C) was -2.78 ± 0.25. As to GAAUAGCAAUAUUACGGUUU, the “self-splicing fitness (ln)” value was -1.03 ± 0.078 (30 °C) and -1.11 ± 0.1 (37 °C). For GUUUAGCAAUAUUACGGUAG the same measures were -3.53 ± 0.29 and -1.72 ± 0.19. For CAACAGCAAUAUUACGAGGU, the “self-splicing fitness (ln)” value runs as follows: (30 °C) -4.43 ± 0.29; (37 °C) -2.24 ± 0.17.

Consider AUACAGCAAUAUUACGAGGC, for which the “self-splicing fitness (ln)” value runs as follows: (30 °C) -2.99 ± 0.19; (37 °C) -2.23 ± 0.2. For UGCCAGCAAUAUUACGAGGU the same measures were -3.06 ± 0.13 and -3.99 ± 0.3. Turning to GGGUAGCAAUAUUACGCCGA, the “self-splicing fitness (ln)” value runs as follows: (30 °C) -0.784 ± 0.16; (37 °C) -0.0895 ± 0.11. Take AGUAAGCAAUAUUACGACCC: the “self-splicing fitness (ln)” value is -1.01 ± 0.47 (30 °C) and -0.157 ± 0.35 (37 °C). Turning to GUCCAGCAAUAUUACGCAGC, the “self-splicing fitness (ln)” value by setting is: (30 °C) -0.998 ± 0.17; (37 °C) 0.198 ± 0.14. Regarding CCCCAGCAAUAUUACGACUC, the “self-splicing fitness (ln)” value was -2.97 ± 0.12 (30 °C) and -2.11 ± 0.21 (37 °C). AAUGAGCAAUAUUACGGGCU: the “self-splicing fitness (ln)” value runs as follows: (30 °C) -2.51 ± 0.18; (37 °C) -2.21 ± 0.46. Take CCGCAGCAAUAUUACGUCAG: the “self-splicing fitness (ln)” value was -0.624 ± 0.054 (30 °C) and 0.0667 ± 0.065 (37 °C). On to GGAUAGCAAUAUUACGCACG, for which the “self-splicing fitness (ln)” value (30 °C) is -1.12 ± 0.16 and the “self-splicing fitness (ln)” value (37 °C) was -0.963 ± 0.15.

In the case of CAUUAGCAAUAUUACGAAUG, the “self-splicing fitness (ln)” value is -2.67 ± 0.19 (30 °C) and -2.28 ± 0.3 (37 °C).

Regarding UUGCAGCAAUAUUACGCUAC, for the setting “30 °C”, the “self-splicing fitness (ln)” value was -0.542 ± 0.29. Turning to CUUCAGCAAUAUUACGUGUA, the “self-splicing fitness (ln)” value (30 °C) is -3.11 ± 0.13 and the “self-splicing fitness (ln)” value (37 °C) was -3.22 ± 0.21. For CUCGAGCAAUAUUACGGCAC the same measures were -3.63 ± 0.25 and -2.16 ± 0.36. For the sequence GGUUAGCAAUAUUACGGUAC, the “self-splicing fitness (ln)” value is -1.21 ± 0.11 (30 °C) and -0.6 ± 0.15 (37 °C). On to GGUAAGCAAUAUUACGUAAU, for which the “self-splicing fitness (ln)” value was -1.21 ± 0.096 (30 °C) and -0.781 ± 0.12 (37 °C). As for UCGCAGCAAUAUUACGAGUA, the “self-splicing fitness (ln)” value (30 °C) was -2.36 ± 0.14 and the “self-splicing fitness (ln)” value (37 °C) was -0.752 ± 0.12.

As for UCGGAGCAAUAUUACGUGGG, the “self-splicing fitness (ln)” value (30 °C) was -3.49 ± 0.32 and the “self-splicing fitness (ln)” value (37 °C) was -3.22 ± 0.28.

On to AGGGAGCAAUAUUACGAGGC, for which the “self-splicing fitness (ln)” value was -2.51 ± 0.35 (30 °C) and -2.59 ± 0.44 (37 °C). For GUUGAGCAAUAUUACGUUAA the same measures were -2.83 ± 0.38 and -2.34 ± 0.25. Regarding GUUGAGCAAUAUUACGGUCG, the “self-splicing fitness (ln)” value (37 °C) is -1.73 ± 0.34.

AGCGAGCAAUAUUACGAGGG: the “self-splicing fitness (ln)” value (30 °C) was -2.74 ± 0.3 and the “self-splicing fitness (ln)” value (37 °C) was -1.19 ± 0.35. For CUAAAGCAAUAUUACGUGUG the same measures were -0.323 ± 0.049 and 0.387 ± 0.06. In the case of CUCCAGCAAUAUUACGUAGU, the “self-splicing fitness (ln)” value reads like this: (30 °C) -3.75 ± 0.19; (37 °C) -2.89 ± 0.22.
